This is an account of results in US11643691B2, “Predictive biomarkers for cancer immunotherapy and methods of using same” (Duke University, priority 2018, dated 2023).

The subject of assay [1] is DCs. The assay is described as follows: BODIPY and fatty acid uptake assay. Format: cell-based, Murine. The following applies: TF2-C12 uptake, BODIPY. As to the method:
BODIPY and Fatty Acid Uptake Assay: DCs were stained in 0.5 μg/ml BODIPY 493/503 in PBS for 15 min to determine neutral lipid content (Herber et al., 2010). Fatty acid uptake measurement in DCs were performed using a dodecanoic acid fluorescent TF2-C12 fatty acid (Sigma) according to the manufacturer's protocol.

Assay [2] has as its system DCs. Put plainly: PpIX flow cytometry analysis and hemin colorimetric assay. Format: cell-based, Murine. As to the method: IDO enzymatic assay and Hemin assay: DC IDO enzyme activity was measured by the conversion of L-tryptophan to L-kynurenine in conditioned media by HPLC (Pallotta et al., 2011). Intracellular hemin was measured using a colorimetric assay kit (BioVision).
PpIX Analysis: DCs were terminally incubated in the presence of 1 mM δ-aminolevulinic acid (ALA) for 4 hrs. Intracellular PpIX was analyzed by flow cytometry as previously described (Hryhorenko et al., 1998).
For orientation: In flow cytometry, cells or beads pass a laser one at a time.

The subject of assay [3] is BRAF^V600EPTEN^−/− melanoma cell line. The assay is described as follows: Qrt-PCR of chemokines in melanoma cell line after rWnt5a. Format: cell-based. The following applies: vs vehicle ctrl. An excerpt:
(A) TCGA melanoma database gene expression association analysis of CXCL5, CXCL2, and CXCR2 with WNT5A. (B) Whole tumor tissue Western blot analysis of Wnt5a, nuclear Yap-1, CXCL5 and β-actin (loading control). Representative blot shown (n=3). (C) Plasma CXCL5 ELISA following anti-PD-1 ab therapy vs IgG isotype ctrl therapy in the transgenic BRAF^V600EPTEN^−/− melanoma model (n=5). bottom, plasma CXCL5 dot blot following anti-PD-1 ab therapy vs IgG isotype ctrl therapy in the transgenic BRAF^V600EPTEN^−/− melanoma model. Representative of 3 independent experiments. pseudo-red reflective of density. (D) Qrt-PCR analysis of Cxcl5, Cxcl2, and Cxcl1 in the BRAF^V600EPTEN^−/− melanoma cell line following treatment with recombinant Wnt5a (rWnt5a) vs vehicle ctrl (n=3). (E) Western blot analysis of Yap-1 expression in total cellular lysates (top) and nuclear lysates (middle) following treatment of BRAF^V600EPTEN^−/− melanoma cells with rWnt5a at various time points. β-actin, total lysate loading ctrl. […], nuclear lysate loading ctrl. (bottom) rWnt5a induction of CXCL5 in the absence and presence of verteporfin (YAP inhibitor) or XAV939 (β-catenin inhibitor). All representative of 3 independent experiments. […]

B1: Wnt5a: Recombinant Human/Mouse Wnt5a Protein (R&D Systems) (protein, UniProt P41221 62-380, looked up)
Protein Wnt-5a: IIGAQPLCSQLAGLSQGQKKLCHLYQDHMQYIGEGAKTGIKECQYQFRHRRWNCSTVDNTSVFGRVMQIGSRETAFTYAVSAAGVVNAMSRACREGELSTCGCSRAARPKDLPRDWLWGGCGDNIDYGYRFAKEFVDARERERIHAKGSYESARILMNLHNNEAGRRTVYNLADVACKCHGVSGSCSLKTCWLQLADFRKVGDALKEKYDSAAAMRLNSRGKLVQVNSRFNSPTTQDLVYIDPSPDYCVRNESTGSLGTQGRLCNKTSEGMDGCELMCCGRGYDQFKTVQTERCHCKFHWCCYVKCKKCTEIVDQFVCK
Turning to B1, in the assay on DCs [1], the “DC fatty acid uptake and lipid stores” value is “enhance DC fatty acid uptake and lipid stores”. Also, the “DC concentrations of PpIX and hemin” value in the assay with DCs [2] was “enhanced DC concentrations of the PpIX prosthetic group and its downstream degradation product, hemin”. Further, in assay [3], the “expression of Cxcl5, Cxcl2 and Cxcl1” value is “increased expression of Cxcl5, Cxcl2, and Cxcl1”.
